Reference: paper PMC6566870
Where two headings read alike, the source gives them in different places.

Tests used:
[1] = target: N-terminally His6-tagged cMyc-tagged human CCR1 (human) (UniProt P32246)
[2] = target: N-terminally His6-tagged cMyc-tagged human CCR1 (human) (UniProt P32246); remark: listed apart in the source
[3] = target: N-terminally His6-tagged cMyc-tagged human CCR1 (human) (UniProt P32246); test: radioligand binding; competitive displacement of 50 pM 125I-CCL3 from membranes of Flp-In T-REx 293 cells expressing CCR1; 2 h at 37 °C; two sets of experiments (Table 1, Table 3)
[4] = target: N-terminally His6-tagged cMyc-tagged human CCR1 (human) (UniProt P32246); remark: listed apart in the source
[5] = target: N-terminally His6-tagged cMyc-tagged human CCR1 (human) (UniProt P32246); remark: listed apart in the source
[6] = target: N-terminally His6-tagged cMyc-tagged human CCR1 (human) (UniProt P32246); test: radioligand binding; competitive displacement of 50 pM 125I-CCL3 from membranes of Flp-In T-REx 293 cells expressing CCR1; 2 h at 37 °C; two sets of experiments (Table 1, Table 3); remark: listed apart in the source

Sequence of N-terminally His6-tagged cMyc-tagged human CCR1 (human) (P32246 whole entry): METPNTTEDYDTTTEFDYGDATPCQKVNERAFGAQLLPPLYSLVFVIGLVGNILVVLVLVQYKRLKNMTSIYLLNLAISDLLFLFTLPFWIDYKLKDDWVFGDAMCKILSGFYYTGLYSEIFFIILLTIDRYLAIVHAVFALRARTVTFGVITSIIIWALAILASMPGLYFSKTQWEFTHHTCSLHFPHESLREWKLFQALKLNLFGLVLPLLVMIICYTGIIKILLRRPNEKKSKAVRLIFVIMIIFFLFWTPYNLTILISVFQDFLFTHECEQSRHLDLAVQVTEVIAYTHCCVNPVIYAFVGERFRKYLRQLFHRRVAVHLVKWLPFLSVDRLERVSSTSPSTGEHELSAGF

Row | Substance | ERK1/2 phosphorylation, EC50 [1] [nM] | ERK1/2 phosphorylation, Emax [1] [%] | ERK1/2 phosphorylation, pEC50 [1] | Gαi1 activation (BRET), EC50 [1] [nM] | Gαi1 activation (BRET), Emax [1] [%] | Gαi1 activation (BRET), pEC50 [1] | Gαi2 activation (BRET), EC50 [1] [nM] | Gαi2 activation (BRET), Emax [1] [%] | Gαi2 activation (BRET), pEC50 [1] | inhibition of forskolin-induced cAMP production, EC50 [1] [nM] | inhibition of forskolin-induced cAMP production, Emax [1] [%] | inhibition of forskolin-induced cAMP production, pEC50 [1] | transduction coefficient Log(τ/KA), GPA αi1 [2] | transduction coefficient Log(τ/KA), GPA αi2 [2] | transduction coefficient Log(τ/KA), cAMP [2] | transduction coefficient Log(τ/KA), pERK [2] | IC50 [3] [nM] | pIC50 [3] | further results
1 | CCL15(Δ28) (ligand) | 2.1 | 28.3 | 8.7 -log M | 2.3 | 86.2 | 8.6 -log M | 1.3 | 140 | 8.9 -log M | 0.4 | 35.7 | 9.4 -log M | 8.4 | 8.6 | 8.9 | 8.6 | 0.074 | 10.1 -log M | –
2 | CCL15(Δ26) (ligand) | – | – | – | – | – | – | 1.2 | 114 | 8.9 -log M | – | – | – | – | 8.3 | – | – | 0.028 | 10.6 -log M | ERK1/2 phosphorylation, EC50 [4]: 2.3 nM; ERK1/2 phosphorylation, Emax [4]: 25.4%; ERK1/2 phosphorylation, pEC50 [4]: 8.6 -log M; G protein activation (Gαi1, BRET), EC50 [4]: 1 nM; G protein activation (Gαi1, BRET), Emax [4]: 111%; G protein activation (Gαi1, BRET), pEC50 [4]: 9 -log M; inhibition of forskolin-induced cAMP production, EC50 [4]: 2.8 nM; inhibition of forskolin-induced cAMP production, Emax [4]: 28.7%; inhibition of forskolin-induced cAMP production, pEC50 [4]: 8.6 -log M; inhibition of forskolin-induced cAMP production, EC50 (Table 3) [1]: 2.7 nM; transduction coefficient Log(τ/KA), GPA αi1 [5]: 8.6; transduction coefficient Log(τ/KA), cAMP [5]: 8.1; transduction coefficient Log(τ/KA), pERK [5]: 8.4; transduction coefficient Log(τ/KA), GPA αi1 (second set of experiments) [2]: 8.7; transduction coefficient Log(τ/KA), cAMP (second set of experiments) [2]: 8.4; transduction coefficient Log(τ/KA), pERK (second set of experiments) [2]: 8.7; IC50 [6]: 0.093 nM; pIC50 [6]: 10.1 -log M
3 | CCL15(N-CCL7) (ligand) | 1.3 | 28.2 | 8.9 -log M | 0.7 | 91.2 | 9.2 -log M | 1.5 | 124 | 8.8 -log M | 0.2 | 35.5 | 9.7 -log M | 9 | 8.5 | 9.1 | 8.8 | 0.54 | 9.3 -log M | –
